According to patent publication US20160015831A1:

Legend:
human CD22 (human) [1] = target: human CD22 (human) (UniProt P20273); experiment: flow cytometry, Daudi cells, 10 µg/ml
human CD22 (human) [2] = target: human CD22 (human) (UniProt P20273); experiment: flow cytometry, Daudi cells, 10 µg/mL
human CD22 (human) [3] = target: human CD22 (human) (UniProt P20273); experiment: flow cytometry, Raji cells, 10 µg/mL
human CD22 (human) [4] = target: human CD22 (human) (UniProt P20273); experiment: flow cytometry, REH cells, 10 µg/ml
human CD22 (human) [5] = target: human CD22 (human) (UniProt P20273); experiment: flow cytometry, RL cells, 10 µg/mL
human CD22 (human) [6] = target: human CD22 (human) (UniProt P20273); experiment: flow cytometry, Ramos cells, 10 µg/mL

isotype control antibody human IgG showed an MFI (human CD22 (human) [1]) of 26.1, an MFI (human CD22 (human) [2]) of 8.3 and an MFI (human CD22 (human) [3]) of 6.2. For the same substance, the MFI (human CD22 (human) [4]) was 4.5, the MFI (human CD22 (human) [5]) was 12.8 and the MFI (human CD22 (human) [6]) was 5.4.
